The term stoichiometry N denotes a count of units in the complex or per binding partner.

The target in this assay is MUC2C-N (human MUC2 residues 4256-4803, C4786A; PTS3, VWCN, D4 and VWC1) (human). As to the kind of experiment: cross-linking.

Consider “MUC2C-N (human MUC2 residues 4256-4803, C4786A; PTS3, VWCN, D4 and VWC1) (domain or fragment)”, for which the stoichiometry N was determined as 2.
